Test results: patent US20230212266A1 (FRED HUTCHINSON CANCER CENTER, published 2023)
Residue numbers refer to the chain shown, from its start.

B1: CV2-52 (antibody, V domains shown)
VH: QVQLVESGGGVVQPGRSLRLSCAASGFTFSSYAMHWVRQAPGKGLEWVAVISYDGINKYYADSVKGRFTISRDSSKNTLYLQMNSLRAEDTAVYYCARGGVGYQLLFGNDWFDPWGQGTLVTVSS
VL: QSALTQPASVSGSPGQSITISCTGTSSDVGGYNYVSWYQQHPGKAPKLMIYEVSNRPSGVSNRFSGSKSGNTASLTISGLQAEDESDYYCSSYTTSSTLYVFGTGTKVTVL
B2: CV43 (antibody, V domains shown)
VH: QVQLVESGGGVVQPGRSLRLSCAASGFTFSSYAMHWVRQAPGKGLEWVAVISYDGSNKYYADSVKGRFTISRDNSKNTLYLQMNSLRAEDTAVYYCARVTVVHFDYWGQGTLVTVSS
VL: NFMLTQPHSVSESPGKTVTISCTGSSGSIASNYVQWYQQRPGSAPTTVIYEDNQRPSGVPDRFSGSIDSSSNSASLTISGLKTEDEADYYCQSYDSSNWVFGGGTKLTVL
B3: CV5 (antibody, V domains shown)
VH: QVQLVQSGAEVKKPGASVKVTCKASGYTFTSYYLHWVRQAPGQGLEWMGIINPSGGTTSYAQKFQGRVTMTRDTSTSTVYMELSSLRSEDTAVYYCARAGRRYSSSDDGAFDIWGQGTMVTVSS
VL: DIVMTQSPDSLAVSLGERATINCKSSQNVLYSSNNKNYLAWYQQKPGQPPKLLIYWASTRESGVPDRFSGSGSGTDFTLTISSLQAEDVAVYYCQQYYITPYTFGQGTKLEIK
B4: CV2-71 (antibody, V domains shown)
VH: EVQLLESGGGLGQPGGSLRLSCAASGFTFSNYAMSWVRQAPGKGLEWVSVISGSGGSTYYADSVKGRFTISRDNSKNTLYLQMNSLRAEDTAVYYCAKAGAVGYYDSNGYYYDVDYYYGMDVWGQGTTVTVSS
VL: QSVLTQPPSVSGAPGQRVTISCTGSSSNIGAGYDVHWYQQLPGTAPKLLIYGNSNRPSGVPDRFSGSKSGTSASLAITGLQAEDEADYYCQSYDSSLSGYVFGTGTKVTVL
B5: CV30 (antibody, V domains shown)
VH: EVQLVESGGGLIQPGGSLRLSCAASGVIVSSNYMSWVRQAPGKGLEWVSVIYSGGSTYYADSVKGRFTISRDNSKNTLYLQMNSLRAEDTAVYYCARDLDVSGGMDVWGQGTTVTVSS
VL: not shown
B6: CV2-41 (antibody, V domains shown)
VH: QVQLQQWGAGLLKPSETLSLTCAVYGGSFSGYYWSWIRQPPGKGLEWIGEINHSGSTNYNPSLKSRVTISVDTSTNQFSLKLSSVTAADTAVYYCARRVHYDILTGFYGGALITRAFDIWGQGTMVTVSS
VL: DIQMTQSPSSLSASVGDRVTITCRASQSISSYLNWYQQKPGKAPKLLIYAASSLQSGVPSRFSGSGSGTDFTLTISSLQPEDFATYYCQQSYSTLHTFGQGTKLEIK
B7: CV2-66 (antibody, V domains shown)
VH: EVQLVESGGGLVQPGRSLRLSCTASGFTFGDYAMSWFRQAPGKGLEWVGFIRSKAYGGTTEYAASVKGRFTISRDDSKSIAYLQMNSLKTEDTAVYYCTRVHHCSGGSCYGYYFDYWGQGTLVTVSS
VL: EIVMTQSPATLSVSPGERATLSCRASQSVSSNLAWYQQKPGQAPRLLIYGASTRATGIPARFSGSGSGTEFTLTISSLQSEDFAVYYCQQYNNWVTFGGGTKVEIK
B8: CV2-56 (antibody, V domains shown)
VH: QVQLVESGGGVVQPGNSLRLSCVASGFKFSSSAMHWVRQAPGKGLEWVAIIWFHGNTKFYGDFVKGRFTVSRDNSNNTLHLQMNSLRAEDTAVYHCARASSDYGGAFDIWGQGTMVTVSS
VL: EIVMTQSPATLSVSLGERATLSCRASQSVTSSLAWYQHKPGQAPRLLIYGASTRATGIPARFSGSGSGTEFTLTISSLQSEDFAVYFCQQYNNWPPWTFGQGTKVEVT
B9: CV2-75 (antibody, V domains shown)
VH: QVQLQESGPGLVKPSETLSLTCTVSGGSISSYYWSWIRQPPGKGLEWIGYVYYSGSTNYNPSLKSRVTISVDTSKNEFSLKLSSVTAADTAVYYCASSQRPDGNLYYFDYWGQGTLVTVSS
VL: SYVLTQPPSVSVAPGQTARITCGGNNIGSKTVHWYQQKPGQAPVLVVYDDSDRPSGIPERFSGSNSGNTATLTISRVEAGDEADYYCQVWDSSSDHYVFGTGTKVTVL
B10: CV2-7 (antibody, V domains shown)
VH: EVQLVQSGAEVKKPGESLKISCKGSGNSFTSYWIGWVRQMPGKGLEWMGIIYPGDSDTRYSPSFQGQVTISADKSISTAYLQWSSLKASDTAMYYCARHRNYDILTGYRYYFDYWGQGTLVTVSS
VL: not shown
B11: CV2-48 (antibody, V domains shown)
VH: QLQLQESGPGLVKPSETLSLTCTVSGGSISSSSYYWGWIRQPPGKGLEWIGNIYYSGITYYNPSLKSRVTISVDTSKNQFSLKLSSVTAADTAVYYCARQLWGYYDSSGYYAFDIWGQGTMVTVSS
VL: QSALTQPASVSGSPGQSITISCTGTSSDVGSYNLVSWYQQHPGKAPKLMIYEGSKRPSGVSNRFSGSKSGNTASLTISGLQAEDEAAYYCCSYVGSSTYVVFGGGTKLTVL
B12: CV11 (antibody, V domains shown)
VH: QVQLQESGPGLVKPSQTLSLTCTVSGGSISSGGYYWSWIRQHPGKGLEWIGYIYYSGSTYYNPSLKSRVTISVDTSKNQFSLKLSSVTAADTAVYYCARETTGHFDYWGQGTLVTVSS
VL: EIVLTQSPATLSLSPGERATLSCRASQSVSSYLAWYQQKPGQAPRLLIYDASNRATGIPARFSGSGSGTDFTLTISSLEPEDFAVYYCQQRSNWPPIFTFGPGTKVDIK
B13: CV2-57 (antibody, V domains shown)
VH: QVQLVQSGAEVKKPGASVKVSCKASGYNFISYGISWVRQAPGQGLEWMGWISAYNGNTNYAQKLQGRVTMTTDTSTSTAYMELRSLRSDDTAVYYCARVRIFGVVIIVDTAMVLDYWGQGTLVTVSS
VL: B12 VL with I97R, F98L, P102G, D107E
B14: CV2-54 (antibody, V domains shown)
VH: QVQLVQSGAEVKKPGSSVKVSCKASGGTFSSYTISWVRQAPGQGLEWMGGIIPIFGTANYAQNFQGRVTITADESTSTAYMELSSLRSEDTAVYYCARVSYYDSSGYYTDYWGQGTLVTVSS
VL: B12 VL with Y32F, S76N, I97E, F98Y, P102Q, V106L, D107E
B15: CV2-53 (antibody, V domains shown)
VH: B14 VH with S30T, T33A, S35T, N63K, S100G, Y101A, T109Q, Y111L, Q114R
VL: B12 VL with I97V, F98I, P102Q, K105R, V106L, D107E
B16: CV2-65 (antibody, V domains shown)
VH: QVQLQESGPGLVKPSETLSLTCTVSGGSISSYYWSWIRQPAGKGLEWIGRIYTSGSTNYNPSLKSRVTMSVDTSKNQFSLKLSSVTAADTAVYYCAREDSYGSGSTGAFDIWGQGTMVTVSS
VL: SYELTQPPSVSVSPGQTARITCSGDALPKQYAYWYQQKPGQAPVLVIYKDSERPSGIPERFSGSSSGTTVTLTISGVQAEDEADYYCQSADSSGTYVFGTGTKVTVL
B17: CV1 (antibody, V domains shown)
VH: QVQLQESGPGLVKPSETLSLTCTVSGYSISSGYYWGWIRQPPGKGLEWIGSIYHSGSTYYNPSLKSRVTISVDTSKNQFSLKLSSVTAADTAVYYCARTPLSLRLRYNWYFDLWGRGTLVTVSS
VL: not shown
notes: expressed as IgG

Key:
[1] = target: T1, SARS-CoV-2 receptor binding domain (RBD) (SARS-CoV-2, UniProt P0DTC2 319-591); assay: BLI: mAb on anti-human Fc probe, dipped in the antigen
[2] = target: T1, SARS-CoV-2 receptor binding domain (RBD); assay: BLI; mAb loaded on anti-human Fc probe, dipped in antigen
[3] = target: T1, SARS-CoV-2 receptor binding domain (RBD); assay: BLI: mAb on anti-human Fc probe, dipped in the antigen; remark: listed apart in the source
[4] = target: T1, SARS-CoV-2 receptor binding domain (RBD); assay: as above; remark: listed apart in the source
[5] = target: T1, SARS-CoV-2 receptor binding domain (RBD); assay: BLI, mAb on anti-human Fc probe, antigen in solution
[6] = target: T1, SARS-CoV-2 receptor binding domain (RBD); assay: BLI: mAb on anti-human Fc probe, dipped in the antigen; remark: listed apart in the source
[7] = target: T1, SARS-CoV-2 receptor binding domain (RBD); assay: as above; remark: listed apart in the source
[8] = target: T1, SARS-CoV-2 receptor binding domain (RBD); assay: as above; remark: listed apart in the source
[9] = target: T1, SARS-CoV-2 receptor binding domain (RBD); assay: BLI, mAb on anti-human Fc probe, antigen in solution; remark: listed apart in the source

Binder	binding result [2]	also measured
B1	–	binding result [1]: no binding
B2	binds	–
B3	binds	–
B4	binds	–
B5	binds	–
B6	binds	–
B7	binds	–
B8	–	binding result [3]: no binding
B9	binds	–
B10	binds	–
B11	–	binding result [4]: binds
B12	–	binding result [5]: no binding
B13	–	binding result [6]: no binding
B14	–	binding result [7]: no binding
B15	–	binding result [8]: no binding
B16	binds	–
B17	–	binding result [9]: no binding
